Assay results as given in PMC3648529 (PLoS ONE, 2013).

Biological target: T1, biotinylated human soluble TWEAK (human, UniProt O43508, biotin (site not stated))
T1 construct: TWEAK, human, soluble form; Captured on a streptavidin (SA) sensor by its biotin; also called biotinylated TWEAK ligand
Assay: SPR; Biacore 2000, SA sensor, biotinylated human soluble TWEAK coupled at 150 RU; antibody injected at 100 nM, 2 min association, 5 min dissociation at 25 C in HBS-ET (10 mM HEPES pH 7.4, 150 mM NaCl, 1 mM EDTA, 0.05% Tween 20); half-life from kd of the interval 240-300 s
Conditions: both partners purified

T1 sequence (O43508 94-249): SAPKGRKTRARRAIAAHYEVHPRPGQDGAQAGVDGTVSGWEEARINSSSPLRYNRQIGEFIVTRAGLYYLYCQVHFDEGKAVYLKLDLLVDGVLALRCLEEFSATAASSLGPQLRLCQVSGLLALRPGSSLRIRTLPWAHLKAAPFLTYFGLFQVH

t/2 diss (half-life of immunocomplex): 2.45 h
B1: chi TW-305 (chimeric rabbit anti-TWEAK monoclonal antibody) (antibody, V domains shown)
VH: QEQLVESGGGLVQPGGSLTLSCKASGFDFSTYYMSWVRQAPGKGLEWIGTVYVRQGTTYYASWLNGRFTISSDNAQNTVDLKMNSLTAADTATYFCAKGGYNYDDAFVIWGPGTLVTVSF
VL: AIEMTQTPFSVSAAVGGTVTINCQASQNIYSNLAWYQQKPGQPPKLLMYTASYLASGVPSRFKGSGSRTEYTLTISGVQCADAATYYCQTAYYNSRPDTVAFGGGTEVVVK
notes: Fab part as the heavy chain of m5 (PDB 4HT1); as the light chain of m5 (PDB 4HT1); Whole antibody from which the Fab m5 was cut; source: produced by standard procedures
